Patent US20040171549A1

Molecular target: integrin alpha v beta 3 present at the surface of the endothelial cells (CPAE) (bovine (calf pulmonary artery endothelial cells)) (UniProt P80746)
Experiment: cell-based or functional assay

Sequence of UniProt P80746 (P80746 31-1048): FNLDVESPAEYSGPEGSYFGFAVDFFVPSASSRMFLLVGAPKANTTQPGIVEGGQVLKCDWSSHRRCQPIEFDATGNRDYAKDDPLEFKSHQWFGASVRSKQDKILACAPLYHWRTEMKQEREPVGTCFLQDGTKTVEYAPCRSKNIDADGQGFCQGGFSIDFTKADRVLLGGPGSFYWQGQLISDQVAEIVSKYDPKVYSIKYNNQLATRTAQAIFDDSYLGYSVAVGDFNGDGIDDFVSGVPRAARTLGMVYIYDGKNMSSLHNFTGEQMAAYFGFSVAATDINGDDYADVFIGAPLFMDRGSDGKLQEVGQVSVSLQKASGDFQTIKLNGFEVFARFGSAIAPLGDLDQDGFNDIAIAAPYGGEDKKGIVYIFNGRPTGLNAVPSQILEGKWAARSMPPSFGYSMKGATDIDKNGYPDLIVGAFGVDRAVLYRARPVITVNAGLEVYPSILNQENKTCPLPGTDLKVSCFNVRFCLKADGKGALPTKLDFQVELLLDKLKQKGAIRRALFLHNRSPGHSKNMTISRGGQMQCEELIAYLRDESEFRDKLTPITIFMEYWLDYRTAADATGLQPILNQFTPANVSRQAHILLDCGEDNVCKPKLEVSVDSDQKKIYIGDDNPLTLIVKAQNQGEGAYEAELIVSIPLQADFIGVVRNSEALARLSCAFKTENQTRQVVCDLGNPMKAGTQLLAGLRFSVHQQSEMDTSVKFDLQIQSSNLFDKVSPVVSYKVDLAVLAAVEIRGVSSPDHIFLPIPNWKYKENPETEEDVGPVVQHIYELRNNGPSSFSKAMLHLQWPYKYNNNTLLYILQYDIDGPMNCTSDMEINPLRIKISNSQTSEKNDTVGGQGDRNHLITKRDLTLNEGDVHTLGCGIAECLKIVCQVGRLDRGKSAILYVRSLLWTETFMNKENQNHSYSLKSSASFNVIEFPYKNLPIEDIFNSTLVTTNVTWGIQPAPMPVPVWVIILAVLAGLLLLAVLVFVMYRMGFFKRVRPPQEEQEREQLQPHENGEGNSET

“1.4-kDa fragment of AMEP constituted of 12 amino acids with the sequence RGDC (peptide)” gave an inhibition of the adhesion of the cells on fibrinogen of 50% and an inhibition of the adhesion of the cells on vitronectin of 49%.
